Data from article PMC12143593, “Selective engineering of condensation properties of single-stranded DNA binding (SSB) protein via its intrinsically disordered linker region”.

Legend:
Settings in all cases: protein: recombinant; tags: N-terminal His6-TEV, removed; chain copies: 4; label: fluorescein
EcSSB WT = EcSSB WT (Escherichia coli, UniProt P0AGE0 1-178); assay: fluorescence polarization; n = 1.7; 20 mM Tris-acetate pH 8, 50 mM K-glutamate, 10 mM Mg-acetate, 25 C; 10 nM labeled oligo, SSB concentrations as tetramers
EcSSB W136D = EcSSB W136D (Escherichia coli, UniProt P0AGE0 1-178, W136D); assay: as above
EcSSB d2G = EcSSB d2G (Escherichia coli, UniProt P0AGE0 1-113+131-178, internal_change); assay: fluorescence polarization; n = 1.8; 20 mM Tris-acetate pH 8, 50 mM K-glutamate, 10 mM Mg-acetate, 25 C; 10 nM labeled oligo, SSB concentrations as tetramers
EcSSB R116D-W136D = EcSSB R116D-W136D (Escherichia coli, UniProt P0AGE0 1-178, R116D;W136D); assay: as above
EcSSB d1G = EcSSB d1G (Escherichia coli, UniProt P0AGE0 1-113+121-178, internal_change); assay: fluorescence polarization; n = 2.2; 20 mM Tris-acetate pH 8, 50 mM K-glutamate, 10 mM Mg-acetate, 25 C; 10 nM labeled oligo, SSB concentrations as tetramers

B1: dT79 (ssDNA)
DNA: TTTTTTTTTTTTTTTTTTTTTTTTTTTTTTTTTTTTTTTTTTTTTTTTTTTTTTTTTTTTTTTTTTTTTTTTTTTTTTT
Kd (EcSSB WT): < 10 nM
Kd (EcSSB W136D): < 10 nM
Kd (EcSSB d2G): 11 ± 2.5 nM
Kd (EcSSB R116D-W136D): < 10 nM
Kd (EcSSB d1G): 11 ± 2.6 nM
